Assay results taken from PMC12663309.

Molecular target: NEK7-mut (NEK7 with deletion of the binding sites) (UniProt Q8TDX7)
Experiment: SPR; Biacore T200; NEK7 or NEK7-mut immobilised by amine coupling; SDHB flowed at different concentrations; 1:1 Langmuir binding model

NEK7-mut (NEK7 with deletion of the binding sites), sequence (Q8TDX7 whole entry, stated change not applied): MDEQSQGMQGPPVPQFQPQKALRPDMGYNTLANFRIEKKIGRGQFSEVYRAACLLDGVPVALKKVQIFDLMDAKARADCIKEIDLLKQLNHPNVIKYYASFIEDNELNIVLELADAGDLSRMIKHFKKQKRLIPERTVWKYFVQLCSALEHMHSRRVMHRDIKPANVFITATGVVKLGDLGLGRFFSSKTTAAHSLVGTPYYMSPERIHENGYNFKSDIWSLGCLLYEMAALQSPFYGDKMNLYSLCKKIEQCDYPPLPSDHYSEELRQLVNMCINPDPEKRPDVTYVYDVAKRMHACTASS

Kd: 4.75 µM
B1: human SDHB recombinant protein (Ag29868, Proteintech) (natural protein)
chain: AQTAAATAPRIKKFAIYRWDPDKAGDKPHMQTYEVDLNKCGPMVLDALIKIKNEVDSTLTFRRSCREGICGSCAMNINGGNTLACTRRIDTNLNKVSKIYPLPHMYVIKDLVPDLSNFYAQYKSIEPYLKKKDESQEGKQQYLQSIEEREKLDGLYECILCACCSTSCPSYWWNGDKYLGPAVLMQAYRWMIDSRDDFTEERLAKLQDPFSLYRCHTIMNCTRTCPKGLNPGKAIAEIKKMMATYKEKKASV
